Assay results: the RNAGym collection of RNA variant scans (doi:10.1073/pnas.2313332121)
This sample holds only a part of the variants without activity.

B1: TPR 5TU (parent)
chain: GGAUCUUCUCGAUCUAACAAAAAAGACAAAUCUGCCACAAAGCUUGAGAGCAUCUUCGGAUGCAGAGGCGGCAGCCUUCGGUGGCGCGAUAGCGCCAACGUUCUCAACUAUGACACGCAAAACGCGUGCUCCGUUGAAUGGAGUUUAUCAUG

Variants of: B1
Assay: polymerase ribozyme fitness, log enrichment relative to wild type (log ratio); higher = more active; in vitro selection for triplet polymerase activity
How it was run: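 The heterodimeric triplet polymerase ribozyme's subunits were each mutagenized into PCR-built libraries and transcribed. Every library was selected once, in triplicate, by annealing with a biotinylated primer, the partner subunit and triplets, incubating frozen at −7 °C, gel-excising extended constructs, capturing on streptavidin beads and running RT-PCR. Input and output libraries were Illumina-sequenced, with genotypes kept only at ≥10 input reads and ≥1 read per output. Fitness, from inverse-variance-weighted replicate averages, is the base-2 logarithm of genotype enrichment over wild-type enrichment.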

Going from GGAUCUUCUCGAUCUAACAAAAAAGACAAAUCUGCCACAAAGCUUGAGAGCAUCUUCGAAUGCAGAGGCGGCAGCCUUCGGUGGUGCGAUAGCGCCAACGUUCUCAACUAUGACACGCAAAACGCGUGCUCCGUUGAAUGGAGUUUAUCAUG to GGAUCUUCUCGAUCUAACAAAAAAGACAAAUCUGCCACAAAGCUUGAGAGCAUCUUCGAAUGCAGAGGCGGCAGCCUUUGGUGGCGCGAUAGCGCCAACGUUCUCAACUAUGACACGCAAAACGCGUGCUCCGUUGAAUGGAGUUUAUCAUG, the “polymerase ribozyme fitness (log ratio)” value falls from -1.79 to -3.86.

First: GGAUCUUCUCGAUCUAACAAAAAAGACAAAUCUGCCACAAAGCUUGAGAGCAUCUUCGAAUGCAGAGGCGGCAGCCUUCGGUGGCGCGAUAGCGCCAACGUUCUCAACUAUGACACGCAAAAAGCGUGCUCCGUUGAAUGGAGUUUAUCAUG
Second: GGAUCUUCUCGAUCUAACAAAAAAGACAAAUCUGCCACAAAGCUUGAGAGCAUCUUCGAAUGCAGAGGCGGCAGCCUUCGGUGUCGCGAUACCGGCAACGUUCUCAACUAUGACACGCAAAACCCGUGCUCCGUUGAAUGGAGUUUAUCAUG
The “polymerase ribozyme fitness (log ratio)” value of the first is higher: -0.0504 for the first, -2.69 for the second.

First: GGAUCUUCUCGAUCUAACAAAAAAGACAAAUCUGCCACAAAGCUUGAGAGCAUCUUCGAAUGCAGAGGCGGCAGCCUUCGGUGGCGCGAUAGAGCCAACGUUCUCAACUAUGACACGCAAAACGCGUGCUCCGUCGAAUGGAGUUAAUCAUG
Second: GGAUCUUCUCGAUCUAACAAAAAAGACAAAUCUGCCACAAAGCUUGAGAGCAUCUUCGAAUGCAGAGGCGGCAGCCUUCGGUGGCGCGAUAGCGCAAACGUUCUCAACUAUGACACUCAAAACGCGUGCUCCGUUGAAUGGAGUUUAUCAUG
The “polymerase ribozyme fitness (log ratio)” value of the first is lower: -3.8 for the first, -0.271 for the second.

First: GGAUCUUCUCGAUCUAACAAAAAAGACAAAUCUGCCACAAAGCUUGAGAGCAUCUUCGAAUGCAGAGGCGGCAGCCUUCGGUGGCGCGAUAGAGCCAACGUUCUCAACUAUGACACGCAAAACGCGUGCUCCGUUGAAUGGAGUUUAUCAUG
Second: GGAUCUUCUCGAUCUAACAAAAAAGACAAAUCUGCCACAAAGCUUGAGAGCAUCUUCGAAUGCAGAGGCGGCAGCCUUCGGUGGCGCGAUAGGGCCAACGUUCUCAACUAUGACACGCAAAACGCGUGCUCCGUUGAAUGGAGUUUAUCAUG
The “polymerase ribozyme fitness (log ratio)” value of the first is higher: -3.22 for the first, -3.78 for the second.

First: GGAUCUUCUCGAUCUAACAAAAAAGACAAAUCUGCCACAAAGCUUGAGAGCAUCUUCGAAUGCAGAGGCGGCAGCCUUCGGUGGCGCGAUAGUGCCAACGUUCUCAACUAUGACACGCAAAACGCGUGCUCCGUUGAAUGGAGUUUAUCAUG
Second: GGAUCUUCUCGAUCUAACAAAAAAGACAAAUCUGCCACAAAGCUUGAGAGCAUCUUCGAAUGCAGAGGCGGCAGCGUUCGGUGGCGCGAUAGGGCCAACGUUCUCAACUAUGACACGCAAAACGCGUGCUCCGUUGAAUGGAGUUUAUCAUG
The “polymerase ribozyme fitness (log ratio)” value of the first is higher: -3.33 for the first, ≤ -4.2 for the second.

First: GGAUCUUCUCGAUCUAACAAAAAAGACAAAUCUGCCACAAAGCUUGAGAGCAUCUUCGAAUGCAGAGGCGGCAGCCUUCGGUGGCGCGAUAGCGCCAACGUUCUCAACUAUGACAUGCAAAACGCGUGCUCCGUUGAAUGGAGUUUAUCAUG
Second: GGAUCUUCUCGAUCUAACAAAAAAGACAAAUCUGCCACAAAGCUUGAGAGCAUCUUCGAAUGCAGAGGCGGCAGCCUUCGGUGGCGCGAUAGCGCCAACGUUCUCAACUAUGACACGAAAAACGCGUGCUCCGUUGAAUGGAGUUUAUCAUG
The “polymerase ribozyme fitness (log ratio)” value of the first is higher: -0.293 for the first, -0.536 for the second.

Going from GGAUCUUCUCGAUCUAACAAAAAAGACAAAUCUGCCACAAAGCUUGAGAGCAUCUUCGAAUGCAGAGGCGGCAGCCUUCGGUGGCGUGAUAGCGCCAACGUUCUCAACUAUGACACGCAAUACGCGUGCUCCGUUGAAUGGAGUUUAUCAUG to GGAUCUUCUCGAUCUAACAAAAAAGACAAAUCUGCCACAAAGCUUGAGAGCAUCUUCGAAUGCAGAGGCGGCAGCCUUCGGUGUCGCGAUAGCGCCAGCGUUCUCAACUAUGACUCGCAAAACGCGUGCUCCGUUGAAUGGAGUUUAUCAUG, the “polymerase ribozyme fitness (log ratio)” value falls from -0.901 to -3.58.

GGAUCUUCUCGAUCUAACAAAAAAGACAAAUCUGCCACAAAGCUUGAGAGCAUCUUCGAAUGCAGAAGCGGCAGCCUUCGGUGGCCCGAUAGCGCGAACGUUCUCAACUAUGACACGCAAAACGCGUGCUCCGUUGAAUUGAGCUUUUCAUG and GGAUCUUCUCGAUCUAACAAAAAAGACAAAUCUGCCACAAAGCUUGAGAGCAUCUUCGAAUGCAGAGGCGGCAGCCUUCGGUGGUGCGAUAGCGCCAACGUGCUCCACUAUGACACGCAAAACGCGUGCUCCGUUGAAUGAAGUUUAUCAUG cannot be ordered by “polymerase ribozyme fitness (log ratio)” value: ≤ -4.2 for the first, ≤ -4.2 for the second.

Compared with GGAUCUUCUCGAUCUAACAAAAAAGACAAAUCUGCCACAAAGCUUGAGAGCAUCUUCGAAUGCAGAGGCGGCAGCCUUCGGUGGCGCCAUAGCGCCAACGUUCUCAACUAUGACACGCAAAACGCGUGCUCCGUUGAAUGGAGUUUAUCAUG, GGAUCUUCUCGAUCUAACAAAAAAGACAAAUCUGCCACAAAGCUUGAGAGCAUCUUCGAAUGCAGAGGCGGCAGCCUUCGGUGGCGCAAUAGCGCCAACGUUCUCAACUAUGACACGCAAAACGCGUGCUCCGUUGAAUGGAGUUUAUCAUG is lower in “polymerase ribozyme fitness (log ratio)” value: -3.73 for the first, -4.04 for the second.

Compared with GGAUCUUCUCGAUCUAACAAAAAAGACAAAUCUGCCACAAAGCUUGAGAGCAUCUUCGAAUGCAGAGGCGGCAGCCUUCGGUGGCGCGAUAGCGCCAAUGUUCUCAACUAUGACGCGCAAAACGCGUGCUCCGUUGAAUGGAGUUUAUCAUG, GGAUCUUCUCGAUCUAACAAAAAAGACAAAUCUGCCACAAAGCUUGAGAGCAUCUUCGAAUGCAGAGGCGACAGCCUUCGGUGGCGCGAUAGCGCCAACGUUCUCAACUAUGACACCCAAAACGCGUGCUCCGUUGAAUGGAGUUUAUCAUG is lower in “polymerase ribozyme fitness (log ratio)” value: -1.83 for the first, -3.56 for the second.

First: GGAUCUUCUCGAUCUAACAAAAAAGACAAAUCUGCCACAAAGCUUGAGAGCAUCUUCGAAUGCAGAGGCGGCAGCCUUCGGUGGCGCGAUAGCGCCAAAGUUCUCAACUAUGACACGCAAAACGCGUGCUCCGUUGAAUUGAGUUUAUCAUG
Second: GGAUCUUCUCGAUCUAACAAAAAAGACAAAUCUGCCACAAAGCUUGAGAGCAUCUUCGAAUGCAGAGGCGGCAGCCUUCGGUGGCACGAUAGCGCCAACGUUCUCAACUAUGACACGCAAAACGCGUGCUCCGUUGAAUGGAGUUUAUCAUG
The “polymerase ribozyme fitness (log ratio)” value of the first is lower: -3.99 for the first, -2.02 for the second.

Going from GGAUCUUCUCGAUCUAACAAAAAAGACAAAUCUGCCACAAAGCUUGAGAGCAUCUUCGAAUGCAGAGGCGGCAGCCUUCGGUGGCUCGAUAGCGCCAACGUUCUCAACUAUGACACGCAAAACGCGUGCUCCGUUGAAUGGAGUUUAUCAUG to GGAUCUUCUCGAUCUAACAAAAAAGACAAAUCUGCCACAAAGCUUGAGAGCAUCUUCGAAUGCAGAGGCGGCAGCCUUCGGUGGCGCGAUAGCGCCAACGUUCUCAACUAUGACACGCAAAACGCGUGCUCCGUUGAAUGGAGUUUAUAAUG, the “polymerase ribozyme fitness (log ratio)” value falls from -1.84 to -3.65.

Going from GGAUCUUCUCGAUCUAACAAAAAAGACAAAUCUGCCACAAAGCUUGAGAGCAUCUUCGAAUGCAGAGGCGGCAGCCUUCGGUGGCGCGAUAGCGCCAACGUUCUCAACUAUGACACGCAAAACGAGUGCUCCGUUGAAUGGAGUUUAUCAUG to GGAUCUUCUCGAUCUAACAAAAAAGACAAAUCUGCCACAAAGCUUGAGAGCAUCUUCGAAUGCAGAGGCGGCAGCCUUCGGUGGCGCGAUAGCGCCAACGUUCUCAACUAUGACACGGAAAACGCGUGCACGGUUGAAUAGAGUUUAUCAUG, the “polymerase ribozyme fitness (log ratio)” value falls from 0.12 to ≤ -4.2.

First: GGAUCUUCUCGAUCUAACAAAAAAGACAAAUCUGCCACAAAGCUUGAGAGCAUCUUCGAAUGCAGAGGCUGCAGCCUUCGGUGGCGCGAUAGGGCCAACGUUCUCAACUAUGUCACGCAAAACGCGUGCUCCGUUGAAUGGAGUUUAUCAUG
Second: GGAUCUUCUCGAUCUAACAAAAAAGACAAAUCUGCCACAAAGCUUGAGAGCAUCUUCGAAUGCAGAGGCGGCAGCCUUCGGUGGCUCGAUAGCGCCAACGUUCUCAACUAUGACACGCUAAACGCGUGCUCCGUUGAAUUGAGUUUAUCAUG
The “polymerase ribozyme fitness (log ratio)” value of the first is lower: ≤ -4.2 for the first, -3.26 for the second.

Going from GGAUCUUCUCGAUCUAACAAAAAAGACAAAUCUGCCACAAAGCUUGAGAGCAUCUUCGAAUGCAGAGGCGGCAACCUUCGGUGGCGCGAUAGCGCCAACGUUCUCAACUAUGACACGCAAAACGCGUGCUCCGUUGAAUGGAGUUUAUCAUG to GGAUCUUCUCGAUCUAACAAAAAAGACAAAUCUGCCACAAAGCUUGAGAGCAUCUUCGAAUGCAGAGGCGGCAGCCUUCGGUGGGGCGAUAGCGCCAACGUUCUCAACUAUGACACGCAAAACGCUUGCUCCGUUGAAUGGAGUUUAUCAUG, the “polymerase ribozyme fitness (log ratio)” value rises from -3.23 to -2.21.

Going from GGAUCUUCUCGAUCUAACAAAAAAGACAAAUCUGCCACAAAGCUUGAGAGCAUCUUCGAAUGCAGAGGCGGCAGCCUUCGGUGGCGUGAUAGCGCCAACGGUCUCAACUAUGACACGCAAAACGCGUGCUCCGUUCAAUGGAGUUUAUCAUG to GGAUCUUCUCGAUCUAACAAAAAAGACAAAUCUGCCACAAAGCUUGAGAGCAUCUUCGAAUGCAGAGGCGGCAGCCUUCGGUGGCGCGAUAGUGCCAUCGUUCUCAACUAUGACACGCAAAACGCGUGCUCCGUUGACUGGAGUUUAUCAUG, the “polymerase ribozyme fitness (log ratio)” value falls from -2.91 to ≤ -4.2.

Compared with GGAUCUUCUCGAUCUAACAAAAAAGACAAAUCUGCCACAAAGCUUGAGAGCAUCUUCGAAUGCAGAGGCGGCAGCCUUCGGUGGGGCGAUAGCGCCAACAUUCUCAACUAUGACUCGCAAAACGCGGGCUCCGUUGAAUGAAGUUUAUCAUG, GGAUCUUCUCGAUCUAACAAAAAAGACAAAUCUGCCACAAAGCUUGAGAGCAUCUUCGAAUGCAGAGGCGGCAGCCUUCGGUGGCGCGAUAGCGCCAACGUUCUCAACUAUGACACGCAAAACGCGUGCUCGGUUGAACGGAGUUUAUCAUG is higher in “polymerase ribozyme fitness (log ratio)” value: ≤ -4.2 for the first, -2.96 for the second.

Compared with GGAUCUUCUCGAUCUAACAAAAAAGACAAAUCUGCCACAAAGCUUGAGAGCAUCUUCGAAUGCAGAGGCGGCAGCCUUCGGUGGCGGGAUAGCGCCAACGUUCUCAACUAUGACACGCAAAACGCGUGCUCCGUUGAAUCGAGUUUAUCAUG, GGAUCUUCUCGAUCUAACAAAAAAGACAAAUCUGCCACAAAGCUUGAGAGCAUCUUCGAAUGCAGAGGCGGCAGCCUUCGGUGGUGCGAUAGCGCCAACGUUCUCAACUAUGACACGCAAAACGCGUGCUCCGAUGAAUGGAGUUUAUCAUG is higher in “polymerase ribozyme fitness (log ratio)” value: ≤ -4.2 for the first, -3.92 for the second.

Compared with GGAUCUUCUCGAUCUAACAAAAAAGACAAAUCUGCCACAAAGCUUGAGAGCAUCUUCGAAUGCAGAAGCGGCAGCCUUCGGUGGCGCGAUAGCGCCAACGUUCUCAAUUAUGACACGCAAAACGCGUGCUCCGUUGAAUGGAGUUUAUCAUG, GGAUCUUCUCGAUCUAACAAAAAAGACAAAUCUGCCACAAAGCUUGAGAGCAUCUUCGAAUGCAGAGGCGGCAGCCUUCGGUUGCGCGAUAGCGCCAACGUUCUCAACUAUGACACGCAAAACGCGUGCUCCGUUGAAUGGAGUUUAUCAUG is higher in “polymerase ribozyme fitness (log ratio)” value: ≤ -4.2 for the first, -1.06 for the second.
